Assay results from publication PMC5774872.

B1: unnamed (parent)
chain 1: MAAQNEQRPERIKTTPYLEGDVLSSDSGPLLSVFALQEIMQKVRQVQADYMTATREVDFTVPDVQQILDDIKALAAAQVYKIVKVPSTSFRHIVTQSRDRVLRVDTYYEEMSQVGDVITEDEPEKFYSTIIKKVRFIRGKGSFILHDIPARDHRGMEVAEPEVLGVEFKNVLPVLTAEHRAMIQNALDGSIIENGNVATRDVDVFIGACSEPFYRIYNRFQGYIEAVQLQELRNSIGWLERLGQRKRITYSQEVLTDFRRQDMIWVLALQLPVNPQVVWDVPRSSIANLIMNIATCLPTGEYIAPNPRISSITLTQRITTTGPFAILTGSTPTAQQLNDVRKIYLALMFPGQIILDLKIDPGERMDPAVRMVAGVVGHLLFTAGGRFTNLTQNMARQLDIALNDYLLYMYNTRVQVNYGPTGEPLDFQIGRNQYDCNVFRADFATGTGYNGWATIDVEYRDPAPYVHAQRYIRYCGIDSRELINPTTYGIGMTYHCYNEMLRMLVAAGKDSEAAYFRSMLPFHMVRFARINQIINEDLHSVFSLPDDMFNALLPDLIAGAHQNADPVVLDVSWISLWFAFNRSFEPTHRNEMLEIAPLIESVYASELSVMKVDMRHLSLMQRRFPDVLIQARPSHFWKAVLNDSPEAVKAVMNLSHSHNFINIRDMMRWVLLPSLQPSLKLVLEEEAWAAANDFEDLMLTDQVYMHRDMLPEPRLDDIERFRQEGFYYTNMLEAPPEIDRVVQYTYEIARLQANMGQFRAALRRIMDDDDWIGFGGVLRTVRVKFFDARPPDDILQGLPFSYDTNEKGGLSYATIKYATETTIFYLIYNVEFSNTPDSLVLINPTYTMTKVFINKRIVERVRVGQILAVLNRRFVAYKGKMRIMDITQSLKMGTKLAAPTV
chain 2: MSAAILLAPGDVIKRSSEELKQRQIQINLVDWMESEGGKEDKTEPKEESKAEGSKDGEGTQSESGQKEEGGKETKDADVDRRIHTAVGSGSGTKGSGERANENANRGDGKVGGGGGDADAGVGATGTNGGRWVVLTEEIARAIESKYGTKIDVYRDEVPAQIIEVERSLQKELGISREGVAEQTERLRDLRRKEKNGTHAKAVERGGRKQRKKAHGDAQREGVEEEKTSEEPARIGITIEGVMSQKKLLSMIGGVERKMAPIGARESAVMLVSNSIKDVVRATAYFTAPTGDPHWKEVAREASKKKNILAYTSTGGDVKTEFLHLIDHL

Variants of: B1
Experiment: coimmunoprecipitation (IP anti-Flag MAb), immunoblot gray-value analysis
Conditions: with partner chain of the complex shown, five experiments, means ± SDs, parent: 100, read off a plot
For chain 2 R281A Y285A, the percent of parent was 4 % of WT. chain 2 Y285A F286A was tested, and the percent of parent was 2 % of WT. chain 2 R281A Y285A F286A was tested, and the percent of parent was 2 % of WT. chain 2 Y285A was tested, and the percent of parent was 1 % of WT. chain 2 R281A F286A was tested, and the percent of parent was 19 % of WT.
